Source: patent US12637662B2, “Cells, islets, and organoids that evade immune detection and autoimmunity, methods of production and use thereof” (SALK INSTITUTE FOR BIOLOGICAL STUDIES, priority 2018, dated 2026)

How the values were obtained:
[1] = system: human iPSC derived cells (islet-like organoids, MCS, HILOs); assay: Glucose-stimulated insulin/c-peptide secretion assay (GSIS, ELISA); type: cell-based
Procedure: Insulin release from intact islets was monitored using batch incubation methods as reported by E. Yoshihara et al., 2016, Cell metabolism, 23:622-634. Briefly, overnight-cultured, isolated pancreatic islets (RPMI-1640 medium supplemented with 10% (v/v) fetal bovine serum and 1% (v/v) Antibiotic-Antimycotic (Gibco)) were pre-cultured at 37° C. for 30 minutes in Krebs-Ringer bicarbonate buffer (KRBB) containing 129.4 mM NaCl, 3.7 mM KCl, 2.7 mM CaCl2), 1.3 mM KH2PO4, 1.3 mM MgSO4, 24.8 mM NaHCO3 (equilibrated with 5% CO2, 95% O2, pH 7.4), 10 mM HEPES and 0.2% (v/v) BSA (fraction V, Sigma) (KRBH) with 3 mM glucose). […] After 30 minutes, the islets were pelleted by centrifugation and secreted insulin levels were determined in the medium by Enzyme Linked Immunosorbent Assay (ELISA), (Rat/mouse Insulin ELISA KIT (Millipore) and Human Insulin ELISA KIT or ultrasensitive human c-peptide ELISA Kit (Millipore) for mouse and human islets, respectively). […] After 30 minutes, the cells were pelleted by centrifugation and c-peptide levels were determined in the supernatant medium using the human c-peptide ELISA KIT (Millipore). […]
Insulin release from intact islets was monitored using batch incubation methods (Yoshihara et al., 2010, Nat. Commun. 1:127). […] After 30 min, the cells were pelleted by centrifugation and c-peptide levels were determined by human c-peptide ELISA KIT (Millipore).

HILO transcriptome = assay: Bulk RNA-Seq transcriptional changes in HILOs; type: cell-based, human; details: WNT4 100 ng/ml for days 26-33
Procedure: Total RNA was isolated from cell pellets treated with RNAlater (Invitrogen) using the RNeasy micro kit (Qiagen) and treated with DNaseI (Qiagen) for 30 minutes at room temperature. Sequencing libraries were prepared from 100-500 ng total RNA using the TruSeq RNA Sample Preparation Kit v2 (Illumina) according to the manufacturer's protocol. Briefly, mRNA was purified, fragmented, and used for first- and second-strand cDNA synthesis followed by adenylation of 3′ ends. Samples were ligated to unique adapters and PCR amplified. Libraries were then validated using the 2100 BioAnalyzer (Agilent), normalized and pooled for sequencing.
RNA-Seq libraries prepared from 3 biological replicates for each experimental condition were sequenced on the Illumina HiSeq 2500 using bar-coded multiplexing and a 100 bp read length. […] This yielded a median of 29.9M usable reads per sample. Short read sequences were mapped to a UCSC hg19 reference sequence using the RNA-Seq aligner STAR (A. Dobin et al., 2013, Bioinformatics, 29:15-21). […] Transcript expression was calculated as gene-level relative abundance in fragments per kilobase of exon model per million (fpkm) mapped fragments and employed correction for transcript abundance bias (A. Roberts et al., 2011, Bioinformatics, 27:2325-2329). […] Scale of heatmaps was determined by Z-score (FIG. 2A, FIG. 3D and FIG. 3G).

wHILO cells = assay: Immunohistochemistry and flow cytometry of cell composition; type: cell-based, human
Procedure: Secondary antibodies were coupled to Alexa 568, 647 (Life Technologies), and IHC staining was visualized by confocal microscopy (ZEISS) or fluorescence microscopy. Hoechst 33342 (Thermo Scientific, 62249, 1 μg/ml final concentration) was used for nuclear staining.
Clusters at indicated stages were dissociated with TrypLE (GIBCO) with 20 ug/ml DNase for 12 minutes at 37° C. and then were fixed with 4% PFA for 10 minutes at room temperature. Clusters were then permeabilized with 0.2% Triton X for 10 min, blocking with 10% goat serum for 30 min and stained for various intracellular markers with antibodies, c-peptide, (1/100, abcam, ab30477), PDX-1 (1/100, BD, 562161), NKX6-1 (1/100, BD, 563338), Chromogranin A (1/100, BD, 564583), MAFA (1/100, abcam, ab264583), MAFB (1/100, abcam, ab66506), Glucagon (1/100, abcam, ab82270), Somatostatin (1/100, abcam, 108456) for analysis on a BD Biosciences LSRII instrument. Data were analysed by FlowJo software. Secondary antibodies for c-peptide, Glucagon and Somatostatin were coupled to Alexa 647 (Life Technologies).

B1: WNT4: recombinant human Wnt4 protein (R&D Systems), non-canonical WNT maturation factor (protein, UniProt P56705 23-351, looked up)
Protein Wnt-4: SNWLYLAKLSSVGSISEEETCEKLKGLIQRQVQMCKRNLEVMDSVRRGAQLAIEECQYQFRNRRWNCSTLDSLPVFGKVVTQGTREAAFVYAISSAGVAFAVTRACSSGELEKCGCDRTVHGVSPQGFQWSGCSDNIAYGVAFSQSFVDVRERSKGASSSRALMNLHNNEAGRKAILTHMRVECKCHGVSGSCEVKTCWRAVPPFRQVGHALKEKFDGATEVEPRRVGSSRALVPRNAQFKPHTDEDLVYLEPSPDFCEQDMRSGVLGTRGRTCNKTSKAIDGCELLCCGRGFHTAQVELAERCSCKFHWCCFVKCRQCQRLVELHTCR
With B1 the “glucose-stimulated insulin (c-peptide) secretion in vitro” value ([1]; 3 mM vs 20 mM glucose) was “showed functional maturation”, the “pseudo-islet formation and GSIS of commercially-available hiPSC-derived β like cells” value ([1]; 3D differentiation medium containing WNT4) was “promoted pseudo-islet formation and GSIS functionality” and the “number of genes with decreased expression” value (HILO transcriptome) was 1354 genes. The “number of genes with increased expression” value (HILO transcriptome) was 1581 genes and the “cellular composition of HILOs” value (wHILO cells) was “not altered”.
